Results reported in US20130079278A1 (Novo Nordisk, published 2013).
Values belong to the binder of their own block, whether it stands above or below them. *1 amine or outer side, *2 acyl side, *3 side chain or, on linkers, in order; H or OH if unused. Where no end group is shown, it is not given here. Side-chain parts run from the residue outwards. The star is where a group is joined. C20 diacid = O=C(O)CCCCCCCCCCCCCCCCCCC(=O)*; C18 diacid = O=C(O)CCCCCCCCCCCCCCCCC(=O)*; C16 diacid = O=C(O)CCCCCCCCCCCCCCC(=O)*; γGlu = O=C(O)[C@H](CCC(=O)[*:2])N[*:1]; C14 diacid = O=C(O)CCCCCCCCCCCCC(=O)*; AEEA = NCCOCCOCC(=O)O

Target: glucagon receptor (human, UniProt P47871 26-477)
Sequence (P47871 26-477): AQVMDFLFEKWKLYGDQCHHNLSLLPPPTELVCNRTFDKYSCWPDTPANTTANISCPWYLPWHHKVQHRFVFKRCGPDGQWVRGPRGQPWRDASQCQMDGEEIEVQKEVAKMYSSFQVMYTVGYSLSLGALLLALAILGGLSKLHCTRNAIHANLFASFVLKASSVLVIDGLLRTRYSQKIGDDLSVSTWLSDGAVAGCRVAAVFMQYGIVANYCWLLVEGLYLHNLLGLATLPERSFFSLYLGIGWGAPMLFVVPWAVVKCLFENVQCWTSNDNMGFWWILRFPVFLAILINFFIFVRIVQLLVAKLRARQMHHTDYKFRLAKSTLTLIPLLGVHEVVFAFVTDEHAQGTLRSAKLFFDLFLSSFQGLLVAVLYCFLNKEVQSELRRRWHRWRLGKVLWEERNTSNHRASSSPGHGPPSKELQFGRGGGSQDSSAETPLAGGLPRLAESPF
Test: cell-based or functional assay

Binder: HSQGTFTSDYSRYLDVRRAQDFVK([γGlu-γGlu-AEEA-AEEA-γGlu-C18 diacid])WLLST
Assay (I) Glucagon [EC50]: 1.32 nM

Binder: HSQGTFTSDYSKYLESRRAQDFVK([γGlu-AEEA-AEEA-γGlu-C18 diacid])WLLNI
Assay (I) Glucagon [EC50]: 1.12 nM

Binder: HSQGTFTSDYSKYLDIRRAQDFVK([γGlu-γGlu-AEEA-AEEA-γGlu-C18 diacid])WLLST
Assay (I) Glucagon [EC50]: 0.084 nM

Binder: HSQGTFTSDYSKYLESRRAQDFVK([γGlu-AEEA-AEEA-γGlu-C18 diacid])WLLNV
Assay (I) Glucagon [EC50]: 0.92 nM

Binder: HSQGTFTSDYSRYLDLRRAQDFVK([γGlu-AEEA-AEEA-γGlu-γGlu-C18 diacid])WLLST
Assay (I) Glucagon [EC50]: 0.91 nM

Binder: HSQGTFTSDYSRYLDLRRAQDFVK([γGlu-γGlu-AEEA-AEEA-γGlu-C14 diacid])WLLST
Assay (I) Glucagon [EC50]: 0.006 nM

Binder: HSQGTFTSDYSKYLDVRRAQDFVK([γGlu-γGlu-AEEA-AEEA-γGlu-C18 diacid])WLLST
Assay (I) Glucagon [EC50]: 0.307 nM

Binder: HSHGTFTSDYSKYLDERRAKDFVK([γGlu-γGlu-AEEA-AEEA-γGlu-C18 diacid])WLLST
Assay (I) Glucagon [EC50]: 0.237 nM

Binder: HSQGTFTSDVSKYLDTRRAQEFVK([γGlu-γGlu-AEEA-AEEA-γGlu-C18 diacid])WLLST
Assay (I) Glucagon [EC50]: 0.139 nM

Binder: HSQGTFTSDYSKYLDTRRAQEFVK([γGlu-γGlu-AEEA-AEEA-γGlu-C18 diacid])WLLST
Assay (I) Glucagon [EC50]: 0.072 nM

B1: N^ε24-[(4S)-4-carboxy-4-[[(4S)-4-carboxy-4-[[2-[2-[2-[[2-[2-[2-[[(4S)-4-carboxy-4-(17-carboxyheptadecanoylamino)butanoyl]amino]ethoxy]ethoxy]acetyl]amino]ethoxy … (peptide)
peptide: HSQGTFTSDYSRYLESRRAQDFVK([γGlu-γGlu-AEEA-AEEA-γGlu-C18 diacid])WLLST
modifications: not fully specified; printed as Nε24-[(4S)-4-carboxy-4-[[(4S)-4-carboxy-4-[[2-[2-[2-[[2-[2-[2-[[(4S)-4-carboxy-4-(17-carboxyheptadecanoylamino)butanoyl]amino]ethoxy]ethoxy]acetyl]amino]ethoxy]ethoxy]acetyl]amino]butanoyl]amino]butanoyl]-[Arg12,Glu15,Lys24,Leu27,Ser25]-Glucagon
Assay (I) Glucagon [EC50]: 0.748 nM

Binder: HSQGTFTSDYSKYLDTRRAQDFVK([γGlu-AEEA-AEEA-γGlu-C18 diacid])WLLNI
Assay (I) Glucagon [EC50]: 0.413 nM

Binder: HSQGTFTSDYSKYLDTRRAQDFVK([γGlu-γGlu-AEEA-AEEA-γGlu-C18 diacid])WLLST
Assay (I) Glucagon [EC50]: 0.075 nM

Binder: HSQGTFTSDYSRYLDARRAQDFVK([γGlu-γGlu-AEEA-AEEA-γGlu-C18 diacid])WLLST
Assay (I) Glucagon [EC50]: 0.158 nM

Binder: HSHGTFTSDYSKYLDSRRAKDFVK([γGlu-γGlu-AEEA-AEEA-γGlu-C18 diacid])WLLST
Assay (I) Glucagon [EC50]: 0.249 nM

Binder: HSQGTFTSDYSRYLDLRRAQDFVK([AEEA-AEEA-γGlu-γGlu-γGlu-C18 diacid])WLLST
Assay (I) Glucagon [EC50]: 0.1 nM

Binder: HSQGTFTSDYSRYLDRRRAQDFVK([γGlu-γGlu-AEEA-AEEA-γGlu-C18 diacid])WLLST
Assay (I) Glucagon [EC50]: 0.355 nM

Binder: HSQGTFTSDYSKYLDTRRAQEFVK([γGlu-AEEA-AEEA-γGlu-C18 diacid])WLLNL
Assay (I) Glucagon [EC50]: 0.183 nM

Binder: HSQGTFTSDYSRYLDTRRAQDFVK([γGlu-γGlu-AEEA-AEEA-γGlu-C18 diacid])WLLST
Assay (I) Glucagon [EC50]: 0.297 nM

Binder: HSQGTFTSDYSRYLDLRRAQDFVK([γGlu-γGlu-AEEA-AEEA-γGlu-C18 diacid])WLLTT
Assay (I) Glucagon [EC50]: 0.754 nM

Binder: HSQGTFTSDYSRYLDFRRAQDFVK([γGlu-γGlu-AEEA-AEEA-γGlu-C18 diacid])WLLST
Assay (I) Glucagon [EC50]: 1.64 nM

Binder: HSQGTFTSDYSKYLDTRRAQEFVK([γGlu-AEEA-AEEA-γGlu-C18 diacid])WLLNV
Assay (I) Glucagon [EC50]: 0.12 nM

Binder: HSQGTFTSDYSKYLDTRRAQDFVK([AEEA-γGlu-γGlu-AEEA-γGlu-C18 diacid])WLLST
Assay (I) Glucagon [EC50]: 0.078 nM

Binder: HSQGTFTSDYSKYLESRRAQDFVK([γGlu-AEEA-AEEA-γGlu-C18 diacid])WLLNL
Assay (I) Glucagon [EC50]: 1.9 nM

Binder: HSQGTFTSDYSRYLDLRRAQDFVK([γGlu-γGlu-AEEA-AEEA-γGlu-C16 diacid])WLLST
Assay (I) Glucagon [EC50]: 0.067 nM

Next, values leading:

Assay (I) Glucagon [EC50]: 1.07 nM
Binder: HSQGTFTSDYSRYLDLRRAQDFVK([γGlu-γGlu-AEEA-AEEA-γGlu-C20 diacid])WLLST

Assay (I) Glucagon [EC50]: 0.243 nM
Binder: HSQGTFTSDYSRYLDLRRAQDFVK([γGlu-γGlu-γGlu-AEEA-AEEA-γGlu-C18 diacid])WLLST

Assay (I) Glucagon [EC50]: 0.28 nM
Binder: HSQGTFTSDYSKYLESRRAQDFVK([γGlu-γGlu-AEEA-γGlu-C18 diacid])WLLST

Assay (I) Glucagon [EC50]: 0.176 nM
Binder: HSQGTFTSDYSRYLDTRRAQDFVK([γGlu-γGlu-AEEA-AEEA-γGlu-C18 diacid])WLEST

Assay (I) Glucagon [EC50]: 0.153 nM
Binder: HSQGTFTSDYSRYLDERRAQDFVK([γGlu-γGlu-AEEA-AEEA-γGlu-C18 diacid])WLLST

Assay (I) Glucagon [EC50]: 1.04 nM
Binder: HSQGTFTSDYSRYLDIRRAQDFVK([γGlu-γGlu-AEEA-AEEA-γGlu-C18 diacid])WLLST

Assay (I) Glucagon [EC50]: 0.255 nM
Binder: HSQGTFTSDYSRYLDLRRAQDFVK([γGlu-γGlu-AEEA-AEEA-γGlu-C18 diacid])WLLST

Assay (I) Glucagon [EC50]: 0.13 nM
Binder: HSQGTFTSDYSKYLDERRAQDFVK([γGlu-γGlu-AEEA-AEEA-γGlu-C18 diacid])WLLST

Assay (I) Glucagon [EC50]: 1.32 nM
Binder: HSQGTFTSDYSRYLDLRRAQDFVK([γGlu-γGlu-γGlu-C18 diacid])WLLST

Assay (I) Glucagon [EC50]: 1.67 nM
Binder: HSQGTFTSDYSRYLDLRRAQDFVK([γGlu-γGlu-AEEA-AEEA-γGlu-C18 diacid])WLLIT

Assay (I) Glucagon [EC50]: 0.039 nM
B2: N^ε24-[(4S)-4-carboxy-4-[[(4S)-4-carboxy-4-[[2-[2-[2-[[2-[2-[2-[[(4S)-4-carboxy-4-(17-carboxyheptadecanoylamino)butanoyl]amino]ethoxy]ethoxy]acetyl]amino]ethoxy … (peptide)
peptide: HSQGTFTSDYSKYLDTRRAQDFVK([γGlu-γGlu-AEEA-AEEA-γGlu-C18 diacid])WLLST-NH2
modifications: N-terminus assumed
SMILES: CC(C)C[C@H](NC(=O)[C@H](Cc1c[nH]c2ccccc12)NC(=O)[C@H](CCCCNC(=O)CC[C@H](NC(=O)CC[C@H](NC(=O)COCCOCCNC(=O)COCCOCCNC(=O)CC[C@H](NC(=O)CCCCCCCCCCCCCCCCC(=O)O)C(=O)O)C(=O)O)C(=O)O)NC(=O)[C@@H](NC(=O)[C@H](Cc1ccccc1)NC(=O)[C@H](CC(=O)O)NC(=O)[C@H](CCC(N)=O)NC(=O)[C@H](C)NC(=O)[C@H](CCCNC(=N)N)NC(=O)[C@H](CCCNC(=N)N)NC(=O)[C@@H](NC(=O)[C@H](CC(=O)O)NC(=O)[C@H](CC(C)C)NC(=O)[C@H](Cc1ccc(O)cc1)NC(=O)[C@H](CCCCN)NC(=O)[C@H](CO)NC(=O)[C@H](Cc1ccc(O)cc1)NC(=O)[C@H](CC(=O)O)NC(=O)[C@H](CO)NC(=O)[C@@H](NC(=O)[C@H](Cc1ccccc1)NC(=O)[C@@H](NC(=O)CNC(=O)[C@H](CCC(N)=O)NC(=O)[C@H](CO)NC(=O)[C@@H](N)Cc1c[nH]cn1)[C@@H](C)O)[C@@H](C)O)[C@@H](C)O)C(C)C)C(=O)N[C@@H](CC(C)C)C(=O)N[C@@H](CO)C(=O)N[C@H](C(N)=O)[C@@H](C)O

Assay (I) Glucagon [EC50]: 0.031 nM
Binder: HSQGTFTSDYSRYLDTRRAQDFVK([γGlu-γGlu-AEEA-AEEA-γGlu-C18 diacid])WLLNT

Assay (I) Glucagon [EC50]: 0.049 nM
Binder: HSQGTFTSDYSKYLDARRAQDFVK([γGlu-γGlu-AEEA-AEEA-γGlu-C18 diacid])WLLST

Assay (I) Glucagon [EC50]: 0.129 nM
Binder: HSHGTFTSDYSKYLDSRRAQDFVK([γGlu-γGlu-AEEA-AEEA-γGlu-C18 diacid])WLLST
